Reference: patent publication US20100113367A1 (IPSEN PHARMA S A S, published 2010)
Numbered stars: 1 amine (or outer) side, 2 acyl side, 3 side chain; on linkers, the order of the positions; unused ones are H or OH. Bridge positions count the residues as written; N and C are the ends. Square brackets hold non-standard residues; d marks the D form. Pipz(1-CH2CO,4-CH2CH2NH) = O=C(CN1CCN(CCN[*:1])CC1)[*:2]; Tyr(3-I) = N[C@@H](Cc1ccc(O)c(I)c1)C(=O)O; Suc = O=C(CCC(=O)[*:2])[*:1]; Nle = CCCC[C@H](N)C(=O)O; rvGly = not defined here; Glut = not defined here; Abu = CC[C@H](N)C(=O)O; Apn = not defined here; AEEA = NCCOCCOCC(=O)O; Ahx = NCCCCCC(=O)O; GABA = NCCCC(=O)O; βAla = NCCC(=O)O

B1: Camptothecin-rvGly-Glut-(Doc)4-Lys-D-Tyr-D-Tyr-c(Cys-3-(I)Tyr-D-Trp-Lys-Abu-Cys)-Thr-NH2 (peptide)
peptide: {Camptothecin-rvGly-Glut-AEEA-AEEA-AEEA-AEEA}-K[dY][dY]C[Tyr(3-I)][dW]K[Abu]CT-NH2
modifications: disulfide 4-9; reading uncertain
B2: Camptothecin-rvGly-Glut-(Doc)6-Lys-D-Tyr-D-Tyr-c(Cys-3-(I)Tyr-D-Trp-Lys-Abu-Cys)-Thr-NH2 (peptide)
peptide: {Camptothecin-rvGly-Glut-AEEA-AEEA-AEEA-AEEA-AEEA-AEEA}-K[dY][dY]C[Tyr(3-I)][dW]K[Abu]CT-NH2
modifications: disulfide 4-9; reading uncertain
B3: Camptothecin-rvGly-Glut-(Doc)4-Lys-D-Tyr-D-Tyr-c(Cys-Phe-Phe-D-Trp-Lys-Thr-Cys)-NH2 (peptide)
peptide: {Camptothecin-rvGly-Glut-AEEA-AEEA-AEEA-AEEA}-K[dY][dY]CFF[dW]KTC-NH2
modifications: disulfide 4-10; reading uncertain
B4: Camptothecin-rvGly-Suc-(Doc)4-Aepa-Gaba-D-Ser-D-Tyr-Gln-Trp-Ala-Val-β-Ala-His-Leu-Nle-NH2 (peptide)
peptide: {Camptothecin-rvGly-Suc-AEEA-AEEA-AEEA-AEEA-Pipz(1-CH2CO,4-CH2CH2NH)}-[GABA][dS][dY]QWAV[βAla]HL[Nle]-NH2
modifications: reading uncertain; also: printed as Camptothecin-rvGly-Suc-(Doc)4-Aepa-Gaba-D-Ser-D-Tyr-Gln-Trp-Ala-Val-β-Ala-His-Leu-Nle-NH2
notes: Bombesin analog conjugate
B5: Camptothecin-rvGly-Suc-(Doc)4-Lys-D-Ser-D-Tyr-Gln-Trp-Ala-Val-β-Ala-His-Leu-Nle-NH2 (peptide)
peptide: {Camptothecin-rvGly-Suc-AEEA-AEEA-AEEA-AEEA}-K[dS][dY]QWAV[βAla]HL[Nle]-NH2
modifications: reading uncertain; also: printed as Camptothecin-rvGly-Suc-(Doc)4-Lys-D-Ser-D-Tyr-Gln-Trp-Ala-Val-β-Ala-His-Leu-Nle-NH2
notes: Bombesin analog conjugate
B6: Camptothecin-rvGly-Suc-(Doc)4-Arg-D-Ala-D-Tyr-Gln-Trp-Ala-Val-β-Ala-His-Leu-Nle-NH2 (peptide)
peptide: {Camptothecin-rvGly-Suc-AEEA-AEEA-AEEA-AEEA}-R[dA][dY]QWAV[βAla]HL[Nle]-NH2
modifications: reading uncertain; also: printed as Camptothecin-rvGly-Suc-(Doc)4-Arg-D-Ala-D-Tyr-Gln-Trp-Ala-Val-β-Ala-His-Leu-Nle-NH2
notes: Bombesin analog conjugate
B7: Camptothecin-rvGly-Suc-(Doc)4-Aepa-Gaba-Asn-Gln-Trp-Ala-Val-β-Ala-His-Leu-Nle-NH2 (peptide)
peptide: Camptothecin-[rvGly][Suc][AEEA][AEEA][AEEA][AEEA][Pipz(1-CH2CO,4-CH2CH2NH)][GABA]NQWAV[βAla]HL[Nle]-NH2
B8: Camptothecin-rvGly-Suc-(Doc)4-Aepa-Nle-Gln-Trp-Ala-Val-β-Ala-His-Leu-Nle-NH2 (peptide)
peptide: Camptothecin-[rvGly][Suc][AEEA][AEEA][AEEA][AEEA][Pipz(1-CH2CO,4-CH2CH2NH)][Nle]QWAV[βAla]HL[Nle]-NH2
B9: Camptothecin-rvGly-Suc-(Doc)4-Aepa-D-Ser-D-Tyr-Gln-Trp-Ala-Val-β-Ala-His-Leu-Nle-NH2 (peptide)
peptide: {Camptothecin-rvGly-Suc-AEEA-AEEA-AEEA-AEEA-Pipz(1-CH2CO,4-CH2CH2NH)}-[dS][dY]QWAV[βAla]HL[Nle]-NH2
modifications: reading uncertain; also: printed as Camptothecin-rvGly-Suc-(Doc)4-Aepa-D-Ser-D-Tyr-Gln-Trp-Ala-Val-β-Ala-His-Leu-Nle-NH2
B10: Camptothecin-rvGly-Suc-(Doc)4-Aepa-Leu-Gaba-Gln-Trp-Ala-Val-β-Ala-His-Leu-Nle-NH2 (peptide)
peptide: Camptothecin-[rvGly][Suc][AEEA][AEEA][AEEA][AEEA][Pipz(1-CH2CO,4-CH2CH2NH)]L[GABA]QWAV[βAla]HL[Nle]-NH2
B11: Camptothecin-rvGly-Suc-(Doc)4-Aepa-Ahx-Gln-Trp-Ala-Val-β-Ala-His-Leu-Nle-NH2 (peptide)
peptide: Camptothecin-[rvGly][Suc][AEEA][AEEA][AEEA][AEEA][Pipz(1-CH2CO,4-CH2CH2NH)][Ahx]QWAV[βAla]HL[Nle]-NH2
B12: Camptothecin-rvGly-Suc-(Doc)4-Aepa-Apn-Asn-Gln-Trp-Ala-Val-β-Ala-His-Leu-Nle-NH2 (peptide)
peptide: Camptothecin-[rvGly][Suc][AEEA][AEEA][AEEA][AEEA][Pipz(1-CH2CO,4-CH2CH2NH)][Apn]NQWAV[βAla]HL[Nle]-NH2
modifications: reading uncertain; also: printed as Camptothecin-rvGly-Suc-(Doc)4-Aepa-Apn-Asn-Gln-Trp-Ala-Val-β-Ala-His-Leu-Nle-NH2

These binders were tested against human somatostatin receptor subtype hSSTR-2 (human) (UniProt P30874) (assay: radioligand displacement, CHO-K1 hSSTR-2 membranes, tracer m39).
human somatostatin receptor subtype hSSTR-2 (human), sequence (P30874 whole entry): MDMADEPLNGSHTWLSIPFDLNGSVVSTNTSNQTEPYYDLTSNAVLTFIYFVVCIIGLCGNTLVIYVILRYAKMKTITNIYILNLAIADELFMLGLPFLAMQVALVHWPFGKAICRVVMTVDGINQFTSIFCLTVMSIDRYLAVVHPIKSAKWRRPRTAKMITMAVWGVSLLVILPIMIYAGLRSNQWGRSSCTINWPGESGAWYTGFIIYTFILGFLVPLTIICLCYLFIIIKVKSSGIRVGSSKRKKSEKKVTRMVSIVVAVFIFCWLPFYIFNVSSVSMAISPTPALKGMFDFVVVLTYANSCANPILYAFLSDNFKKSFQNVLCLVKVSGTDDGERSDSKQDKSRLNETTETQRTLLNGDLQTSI

Compared with B1, B2 is 3.6-fold higher in Ki: 0.1 nM for the first, 0.36 nM for the second.

In the case of B3, the Ki is reported as 9.38 nM.

What follows are binders tested against T1, native bombesin/GRP receptor of AR42J rat pancreas cells (rat, UniProt P52500 1-384) (assay: radioligand displacement, AR42J rat pancreas cell membranes, tracer [125I-Tyr4]bombesin).
T1 construct: whole, on cells; Used as membrane homogenate of AR42J cells; also called bombesin receptor
Description: The homogenates were washed twice by centrifugation (39,000 g/10 minutes) and the final pellets were resuspended in 50 mM Tris-HCl containing 2.5 mM MgCl₂ and 0.1% BSA. For the assay, aliquots of membrane homogenate (0.4 ml) were incubated with 0.05 nM [¹²⁵I-Tyr4]bombesin (2200 Ci/mmol) (New England Nuclear®, Boston, Mass., U.S.A.) with and without 0.05 ml of unlabeled competing test peptides. After a 30 minute incubation period at 4° C., the bound [¹²⁵I-Tyr4]bombesin was separated from the free bombesin by rapid filtration through GF/B filters (Brandel®, Gaithersburg, Md., U.S.A.) which had been previously soaked in 0.3% polyethyleneimine. The filters were then washed three times with 5-ml aliquots of ice-cold 50 mM Tris-HCl. The bound radioactivity trapped on the filters was counted by gamma spectrometry (Wallac LKB®, Gaithersburg, Md., U.S.A.). Specific binding was defined as the total [¹²⁵I-Tyr4]bombesin bound minus that bound in the presence of 1000 nM bombesin (Bachem®, Torrence, Calif., U.S.A>).

T1 sequence (P52500 whole entry): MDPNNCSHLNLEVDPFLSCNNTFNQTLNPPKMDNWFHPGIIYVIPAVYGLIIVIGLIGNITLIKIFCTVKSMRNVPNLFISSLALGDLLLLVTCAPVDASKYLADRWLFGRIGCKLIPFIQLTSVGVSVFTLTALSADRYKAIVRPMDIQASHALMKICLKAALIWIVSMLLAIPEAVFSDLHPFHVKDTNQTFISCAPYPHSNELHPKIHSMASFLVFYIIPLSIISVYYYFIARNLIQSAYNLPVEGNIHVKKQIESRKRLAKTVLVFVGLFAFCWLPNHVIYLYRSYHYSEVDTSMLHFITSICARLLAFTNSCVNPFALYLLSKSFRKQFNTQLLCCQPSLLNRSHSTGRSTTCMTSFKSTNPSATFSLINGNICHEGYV

First: B4
Second: B5
The Ki of the first is 3.3-fold higher: 4.82 nM for the first, 1.45 nM for the second. The second binds more tightly here.

B6 showed a Ki of 1.1 nM.

Each binder was assayed against human somatostatin receptor subtype hSSTR-5 (human) (UniProt P35346) (assay: radioligand displacement, CHO-K1 hSSTR-5 membranes, tracer m40).
human somatostatin receptor subtype hSSTR-5 (human), sequence (P35346 whole entry): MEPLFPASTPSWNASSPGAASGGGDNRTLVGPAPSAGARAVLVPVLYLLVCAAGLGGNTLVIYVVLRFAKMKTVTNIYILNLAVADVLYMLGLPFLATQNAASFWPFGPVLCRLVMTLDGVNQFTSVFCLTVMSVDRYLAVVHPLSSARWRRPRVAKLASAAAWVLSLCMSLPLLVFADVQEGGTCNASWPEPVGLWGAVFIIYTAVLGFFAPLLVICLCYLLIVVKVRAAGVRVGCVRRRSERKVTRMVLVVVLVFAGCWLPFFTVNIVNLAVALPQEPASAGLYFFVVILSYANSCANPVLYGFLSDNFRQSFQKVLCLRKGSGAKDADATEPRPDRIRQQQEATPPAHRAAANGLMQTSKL

B1 and B2 are within 1.5-fold of each other in Ki: 3.86 nM for the first, 3 nM for the second.

Work on B3 yielded a Ki of 481 nM.

These binders were tested against native bombesin/GRP receptor of AR42J rat pancreas cells (rat) (UniProt P52500) (assay: radioligand displacement, AR42J rat pancreas cell membranes, tracer [125I-Tyr4]bombesin).
native bombesin/GRP receptor of AR42J rat pancreas cells (rat), sequence (P52500 whole entry): as the sequence (P52500 whole entry) above

Going from B7 to B8, the Ki falls from 7.65 nM to 4.57 nM (1.7-fold). The second binds more tightly here.

Compared with B9, B10 is 4.6-fold higher in Ki: 3.96 nM for the first, 18.2 nM for the second.

Going from B11 to B12, the Ki rises from 1.9 nM to 4.07 nM (2.1-fold). The first binds more tightly here.

Each binder was assayed against human somatostatin receptor subtype hSSTR-3 (human) (UniProt P32745) (assay: radioligand displacement, CHO-K1 hSSTR-3 membranes, tracer [125I-Tyr11]SRIF-14).
human somatostatin receptor subtype hSSTR-3 (human), sequence (P32745 whole entry): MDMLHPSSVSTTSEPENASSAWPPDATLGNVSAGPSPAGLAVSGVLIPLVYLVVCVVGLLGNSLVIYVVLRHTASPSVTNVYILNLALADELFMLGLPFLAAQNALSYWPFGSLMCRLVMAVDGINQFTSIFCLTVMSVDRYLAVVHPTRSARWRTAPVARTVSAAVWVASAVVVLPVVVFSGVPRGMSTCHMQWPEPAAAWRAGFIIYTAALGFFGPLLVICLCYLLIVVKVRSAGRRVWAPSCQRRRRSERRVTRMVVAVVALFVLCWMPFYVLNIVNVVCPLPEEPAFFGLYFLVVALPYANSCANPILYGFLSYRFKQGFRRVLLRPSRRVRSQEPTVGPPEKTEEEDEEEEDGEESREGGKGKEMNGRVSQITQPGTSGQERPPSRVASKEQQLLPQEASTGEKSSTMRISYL

B1 and B2 are within 1.5-fold of each other in Ki: 94 nM for the first, 125 nM for the second.
